# Assay results published in paper PMC6942045.
# Target: K63-di-Ub (UniProt P0CG47)
# Test: ITC
row,Kd,Substance
1,20 µM,"Cezanne2 UBA (1-88 aa), GST cleaved (from UniProt Q8TE49 1-88) (domain or fragment)"
2,6.4 µM,"Rap80 UIMs (60-144 amino acids), GST cleaved (from UniProt Q96RL1 60-144) (domain or fragment)"
3,20 µM,"Cezanne UBA (1-66 aa), GST cleaved (from UniProt Q6GQQ9 1-66) (domain or fragment)"
